Laboratory results published in paper PMC2816707.

Target: humanized EBV321
Test: ELISA
Details: chain shown with the change; point at the highest antibody concentration, about 13.3 nM (read from x axis); VEGF captured on ELISA plate; parent: est. 0.66; read off a plot

Binder | response
rabbit IgG Fc-hVEGF (human VEGF165) fusion protein, wild type, P15692-4 G88A (protein) APMAEGGGQNHHEVVKFMDVYQRSYCHPIETLVDIFQEYPDEIEYIFKPSCVPLMRCGGCCNDEGLECVPTEESNITMQIMRIKPHQAQHIGEMSFLQHNKCECRPKKDRARQENPCGPCSERRKHLFVQDPQTCKCSCKNTDSRCKARQLELNERTCRCDKPRR | 0.73 OD (405nm)
rabbit IgG Fc-hVEGF (human VEGF165) fusion protein, wild type, P15692-4 I46A (protein) APMAEGGGQNHHEVVKFMDVYQRSYCHPIETLVDIFQEYPDEIEYAFKPSCVPLMRCGGCCNDEGLECVPTEESNITMQIMRIKPHQGQHIGEMSFLQHNKCECRPKKDRARQENPCGPCSERRKHLFVQDPQTCKCSCKNTDSRCKARQLELNERTCRCDKPRR | 0.7 OD (405nm)
